Assay results reported in patent US20060142546A1, “Immunogenic muc1 glycopeptides” (priority 2002, published 2006).
Where a SMILES comes first, the peptide text is derived from it. Where no end group is shown, it is not given here. The star is where a group is joined. Cbz = O=C(OCc1ccccc1)*; CH2F = FC*

Assays:
[1] = target: T1, human cathepsin L (Homo sapiens, UniProt P07711); test: In vitro proteolysis of native MUC1 and MUC1 (glyco)peptides with human cathepsin L; assay type: biochemical; settings: for proteolysis by cathepsin L: 3 h or 24 h
T1 construct: in the cathepsin L preparation from human liver; purchased Sigma (München, Germany); host or cells: human liver
T1 sequence (P07711 114-288 limits assumed): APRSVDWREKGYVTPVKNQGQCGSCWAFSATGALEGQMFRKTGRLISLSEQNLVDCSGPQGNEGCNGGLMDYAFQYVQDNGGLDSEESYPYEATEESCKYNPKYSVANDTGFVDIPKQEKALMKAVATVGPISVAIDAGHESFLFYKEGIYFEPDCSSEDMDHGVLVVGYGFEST
T1 sequence (P07711 292-333 limits assumed): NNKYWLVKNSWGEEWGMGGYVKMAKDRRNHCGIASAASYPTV
Protocol: FIG. 4: In vitro proteolysis of MUC1 glycopeptide A3 by human cathepsin L. N-terminally free or biotinylated MUC1 glycopeptide A3 (10 μg) were treated for 3 h with 1 milliunit of cathepsin L in the presence or absence of the cathepsin L/B-specific cysteine protease inhibitor Z-Leu-Leu-Leu-fluoromethyl ketone (1 μM) using 0.1M sodium acetate, pH 5.5, containing 1 mM EDTA, and 1 mM DTT as reaction buffer.
Human cathepsins L and D were purchased from Sigma (München, Germany) and solubilized in 0.1 M sodium acetate buffer, pH 5.5, containing 1 mM EDTA (cathepsin D) and 1 mM dithiotreitol (cathepsin L). 2-5 units of enzyme(s) were added to 100 μg of mucin or recombinant fusion protein or to 10 μg of (glyco)peptide substrates in a total volume of 20 μl digestion buffer (see above). The reaction mixtures were incubated at 37° C. and 2 μl were withdrawn after 3 h or 24 h and diluted 20 fold in 0.1% aqueous TFA prior to MALDI mass spectrometry. In case of native MUC1 samples with complex O-glycosylation (MUC1 from tumor ascites, HMFG-MUC1, partially deglycosylated HMFG-MUC1, and MFP6 fusion protein) the digest was desalted by solid-phase extraction (ZipTip C18) and the (glyco)peptides were deglycosylated by β-elimination/ethylaminylation in 70% ethylamine at 50° C. as previously described (Müller and Hanisch, J. Biol. Chem. 277 (2002), 26103-26112). Each glycosylated position in the peptide fragments corresponds to the addition of a 27 u mass increment.

[2] = test system: human immature dendritic cells; test: Processing of MUC1 antigen by human monocyte-derived dendritic cells (antigen pulse, MALDI/LC-MS of fragments); assay type: cell-based; settings: cellular lysate or culture supernatant, mass range up to 8 kDa
Protocol: Human immature DCs were pulsed with native, N-terminally unmodified, soluble antigens, while the mature mouse DCs had to be fed with particulate antigen to reach sufficient antigen load. […] Simultaneously, the maturation process of the cells was induced by addition of 20 ng/ml tumor necrosis factor (TNF-α; Sigma-Aldrich, Munich, Germany) and 10 μg/ml of anti-CD40 antibody (Pharmingen, San Diego, Calif.). The cells were finally separated from medium by centrifugation, washed in PBS and both fractions were analysed for the presence of peptide/glycopeptide fragments according to the protocol described below.
The human or mouse dendritic cell fractions were treated on ice for 15 min with 100 μl 1% NP40, 10 mM Tris-HCl, 150 mM NaCl, pH 8.0 containing a cocktail of protease inhibitors (Sigma P8340, München, Germany) followed by ultrasonication for 2 min. […] To avoid selection of product subfractions by affinity-isolation, in most experiments the peptides were enriched by solid-phase extraction on reversed-phase columns.
Peptides and glycopeptides contained in the cell-free supernatants were affinity-isolated by solid-phase extraction on reversed-phase supports (100 μg polysphere C18, 50 μl Poros C18). […]

[3] = test system: Cathepsin L-like activity in low-density endosomes from mouse dendritic cells; test: Proteolysis of TAP25 by low-density endosomal fractions from mouse dendritic cells; assay type: biochemical; settings: 1 μM inhibitor, TAP25 as substrate
Protocol: Mouse dendritic cells (10^8) were homogenized by fine-needle aspiration on ice using 1 ml of 0.3 M sucrose, 0.01 M Hepes as buffer (without protease inhibitors). After dilution to 7 ml and centrifugation at 850 g for 10 min to remove intact cells and nuclei, 6 ml of the supernatant were centrifuged over 24 ml of 30% Percoll with 0.3 M sucrose, 0.01 M Hepes for 105 min at 20.000 rpm in a centrifuge (model J2-21 M/E, rotor: JA-20, Beckman instruments, München, Germany) (Barnes et al., J. Exp. Med. 181 (1995), 1715-1727). The gradient was fractionated by gravity siphon (30×1 ml) and each fraction was analysed after sonication for the presence of MHC class II molecules by enzyme immunoassay with anti-H2 antibody (rat hybridoma cell line M1/42.3.9.8.HLK obtained from the ATCC), β-hexosamimidase activity (Barnes et al., 1995) and cathepsin L related proteolytic activity using TAP25 peptide as substrate (5 μg). The samples were incubated for 24 h at 37° C., diluted 20 fold in aqueous TFA and analysed by MALDI mass spectrometry. For specific inhibition of cathepsin L activity, the corresponding fractions were mixed with 1 μM Z-Leu-Leu-Leu-fluoromethyl ketone (Sigma).

For “GST20-AES (GSTAPAAHGVTSAPESRPAP; also: glycosylated, sites not given here)”, the “structural assignment of product” value ([1]; Table 2, 3 h, 37° C., pH 5.5) was “SAP9”, the “Average mass of production (mass range 500-4500 Da)” value ([1]; Table 2, synthetic monomeric repeat peptides, N-terminally unmodified, 3 h, 37° C., pH 5.5, 1 mM DTT) was 910.8 Da and the cleavage ([1]; standard conditions for cysteine proteases, incubation 3 h) was 80%.

In the case of “Asc-MUC1: MUC1 from pooled human tumor ascites”, the “proteolysis by cathepsin L” value ([1]; pH 5.5, 1 mM DTT, 37° C.) was “not digested” and the fragmentation of antigen [2] was “No fragmentation”.

For “GalNAc-MUC1: partially deglycosylated HMFG-MUC1”, the “structural assignment of repeat fragment ion” value ([1]; Table 3, native mucin, after de-O-glycosylation/ethylaminylation) was “GVT20 + 1-4 HexNAc” and the “proteolysis by cathepsin L” value ([1]; pH 5.5, 1 mM DTT, 37° C.) was “fragmentation by cathepsin L at low efficiency”.

With “AHGVTSAPESRPAPGSTAPAA (not fully specified (residue 5); also: GalNAc glycan at Thr5 (H4), Ser10 (H5) or Thr17 (H6), which one is not fixed for this name, biotinylated)” the “proteolysis by cathepsin L” value ([1]; pH 5.5, 1 mM DTT, 37° C.) was “stable to proteolysis”.

With `CC(C)C[C@H](NC(=O)[C@H](CC(C)C)NC(=O)[C@H](CC(C)C)NC(=O)OCc1ccccc1)C(=O)CF` [Z-Leu-Leu-Leu-fluoromethyl ketone, reference compound] (Cbz-Leu-Leu-Leu-CH2F) the “inhibition of catalytic activity directed to the Thr-Ser bond” value ([1]; inhibitor 1 μM, substrate glycopeptide A3) was “specifically inhibited” and the “inhibition of cysteine protease in low density endosomes” value [3] was “inhibitable”.

With “HMFG-MUC1: mucin from human milk fat globule membranes” the “proteolysis by cathepsin L” value ([1]; pH 5.5, 1 mM DTT, 37° C.) was “not digested”.
